Entries after “also recorded” stand apart in the source; their conditions may differ.
What was measured:
[1] = tested on: CHL cells transfected with the vector alone; assay: binding of 125I-VIP to CHL cells transfected with vector alone; parameters: species or system Chinese hamster; conditions: data not shown
Protocol: Stable transformants were selected in the presence of G418 (0.8 mg/ml, GIBCO/BRL, Gaithersburg, Md.). […] Each peptide concentration prepared in Hfank's balanced salt solution containing 20 mM HEPES, pH 7.4, 0.5% BSA and 0.1 mM phenylmethylsulfonyl-fluoride (PMSF) was added in triplicates to intact cells. Following the incubation, the cells were washed two times with ice-cold PBS, lysed with 1 N NaOH, and radioactivity measured in gamma counter. […] The maximum specific binding was 5%. The variation among triplicate values was 10%.

[2] = target: T1, recombinant human PACAP/VIP R-2 receptor (Homo sapiens, UniProt P41587); assay: competitive binding with 125I-VIP, CHL cells expressing recombinant receptor
T1 construct: expressed in transfected cells
T1 sequence (P41587 24-438 R412H/G424A): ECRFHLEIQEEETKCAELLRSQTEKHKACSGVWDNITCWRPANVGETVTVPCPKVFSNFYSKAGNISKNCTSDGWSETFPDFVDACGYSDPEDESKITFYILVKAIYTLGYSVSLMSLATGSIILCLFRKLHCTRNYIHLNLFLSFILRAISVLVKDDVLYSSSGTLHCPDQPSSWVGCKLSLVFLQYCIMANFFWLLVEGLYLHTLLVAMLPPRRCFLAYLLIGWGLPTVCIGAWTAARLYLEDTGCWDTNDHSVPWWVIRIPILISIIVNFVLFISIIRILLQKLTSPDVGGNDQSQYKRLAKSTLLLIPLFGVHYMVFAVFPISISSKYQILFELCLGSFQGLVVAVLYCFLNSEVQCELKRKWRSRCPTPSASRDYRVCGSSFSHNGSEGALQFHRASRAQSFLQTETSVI
Protocol: Data points represent an average of two separate experiments (n=6). The variation among individual points was 10% (see Materials and Methods).
Each peptide concentration prepared in Hfank's balanced salt solution containing 20 mM HEPES, pH 7.4, 0.5% BSA and 0.1 mM phenylmethylsulfonyl-fluoride (PMSF) was added in triplicates to intact cells. Following the incubation, the cells were washed two times with ice-cold PBS, lysed with 1 N NaOH, and radioactivity measured in gamma counter. […] The variation among triplicate values was 10%.

[3] = target: T1, recombinant human PACAP/VIP R-2 receptor; assay: stimulation of intracellular cAMP in cells expressing recombinant receptor; type: cell-based; conditions: FIG. 2B; for stimulation of intracellular cAMP formation (in words) / peptide concentration at maximum stimulation of cAMP levels: CHL cells; for stimulation of intracellular cAMP formation (in words): 45 minutes at 37° C., secretin, glucagon, GLP-I and GLP-II at μM concentrations
Text: Data points represent an average of two separate determinations (n=6), except for secretin (n=3) (see Materials and Methods). The variation among individual points was 5%.

[4] = tested on: CHL cells transfected with vector alone; assay: intracellular cAMP in CHL cells transfected with vector alone; type: cell-based, Chinese hamster; conditions: 1.1 μM; data not shown
Protocol: Cells were grown in 24-well plates to about 50% confluence. They were washed twice with the incubation buffer (Macy's 5A pH 7.4, containing 20 mM HEPES, 0.5% BSA and 0.5 mM IBMX) and incubated with different concentration of synthetic peptides added in triplicates (μM-pM) for 45 minutes at 37° C. In each experiment forskolin (10 μM, Sigma, St. Louis, Mo.) was added as a positive control. After removal of the medium, cells were washed twice with PBS and lysed with 95% ethanol. The suspension was centrifuged at 13,000 rpm for 3 minutes, and supernatants were taken to dryness in a speed vacuum. The contents were reconstituted in 0.05 M acetate buffer (0.5 ml) and cAMP levels measured using the cAMP Biotrak SPA system (Amersham, Arlington Heights, Ill.). The variation among triplicate values was 5%. The data shown in FIG. 2B are average of two separate incubations (n=6), except for secretin (n=3).

[5] = tested on: insulin secretion; conditions: Yada et al., 1994; cited from earlier work
[6] = 125I-VIP 44 pM, whole CHL cells

Substance	displacement of 125I-VIP binding (in words) [2, 6]	stimulation of intracellular cAMP formation (in words) [3]	other results
125I-VIP: radioiodinated VIP (2000 Ci/mmol, Amersham)			binding of 125I-VIP to vector-transfected cells [1]: did not bind
PACAP-27	complete displacement of ^125 I-VIP binding to the recombinant PACAP/VIP R-2 was not obtainable at high PACAP-27 concentration	stimulated intracellular cAMP formation in a dose dependent manner	IC50 ([2]; read-out: ID50, displacement of 125I-VIP binding, 125I-VIP 44 pM, whole CHL cells, 15-18 hour at 4° C., VIP and PACAP-27 values estimated (incomplete displacement)): 0.037 µM; peptide concentration at maximum stimulation of cAMP levels [3]: 100 nM
PACAP-38: 38-amino acid form of pituitary adenylate cyclase activating polypeptide; synthetic, purchased from Peninsula	displaced in a dose dependent manner	stimulated intracellular cAMP formation in a dose dependent manner	relative affinity for the receptor (in words) ([2]; competitive binding, whole cells): higher affinity than PACAP-27; also recorded: slightly higher affinity for PACAP-38 than for VIP; cAMP response at supraphysiological concentration ([3]; 1 μM PACAP-38): sharp drop to baseline levels; peptide concentration at maximum stimulation of cAMP levels [3]: 100 nM; change of intracellular cAMP in vector-transfected cells [4]: No change of intracellular cAMP was detected; stimulation of insulin secretion [5]: ability to stimulate insulin secretion
glucagon-like peptide-I [GLP-I]	did not displace this binding	did not show any stimulation	
glucagon-like peptide-II [GLP-II]	did not displace this binding	did not show any stimulation	
glucagon: glucagon	did not displace this binding	did not show any stimulation	
secretin: synthetic secretin purchased from Peninsula; high sequence homology to PACAP and VIP		Some increase of intracellular cAMP levels	high concentration at which 125I-VIP binding was displaced ([2]; 125I-VIP, FIG. 2A): 3.8 µM

From US6316596A, “Receptor for peptide hormones involving in energy homeostasis” (The Rockefeller University, priority 1998, dated 2001)
